According to patent US7026443:

B1: HPV16 E1 216 … (peptide)
peptide: GVSFSELVR
modifications: not checked
Question: Which binding affinity ratio (IC50 of standard peptide / IC50 of test peptide) (ratio to standard peptide) (HLA-A*0301 (human)) does the source give for B1 here?
Answer: Its binding affinity ratio (IC50 of standard peptide / IC50 of test peptide) (ratio to standard peptide) is 0.0011.

Question: What about the relative binding ratio (IC50 of standard peptide / IC50 of test peptide) (HLA-A*1101 (human)) of the same binder?
Answer: Its relative binding ratio (IC50 of standard peptide / IC50 of test peptide) is 0.018.

B2: HPV16 E1 403 … (peptide)
peptide: KDCATMCRH
modifications: not checked
Question: What does the source list for B2?
Answer: binding affinity ratio (IC50 of standard peptide / IC50 of test peptide) (ratio to standard peptide) (HLA-A*0301 (human)): 0.0011; relative binding ratio (IC50 of standard peptide / IC50 of test peptide) (HLA-A*1101 (human)): 0.0002

B3: HPV16 E1 403 … (peptide)
peptide: KDCATMCRHY
modifications: not checked
Question: B3 was tested. Which binding affinity ratio (IC50 of standard peptide / IC50 of test peptide) (ratio to standard peptide) (HLA-A*0301 (human)) did it give?
Answer: Its binding affinity ratio (IC50 of standard peptide / IC50 of test peptide) (ratio to standard peptide) is 0.0005.

Question: What about the relative binding ratio (IC50 of standard peptide / IC50 of test peptide) (HLA-A*1101 (human)) of the same binder?
Answer: Its relative binding ratio (IC50 of standard peptide / IC50 of test peptide) is 0.0002.

B4: HPV16 E1 277 … (peptide)
peptide: LLVRYKCGK
modifications: not checked
Question: What does the source list for B4?
Answer: binding affinity ratio (IC50 of standard peptide / IC50 of test peptide) (HLA-A*0301 (human)): 0.0043; binding affinity ratio (IC50 of standard peptide / IC50 of test peptide) (ratio to standard peptide) (HLA-A*1101 (human)): 0.0033

B5: HPV16 E1 222 … (peptide)
peptide: LVRPFKSNK
modifications: not checked
Question: Which results are given for B5?
Answer: binding affinity ratio (IC50 of standard peptide / IC50 of test peptide) (HLA-A*0301 (human)): 0.07; binding affinity ratio (IC50 of standard peptide / IC50 of test peptide) (ratio to standard peptide) (HLA-A*1101 (human)): 1.8

B6: … (HPV16 E6, position 75, 10 amino acids) (peptide)
peptide: KFYSKISEYR
modifications: not checked
Question: B6 was tested. Which binding affinity ratio (IC50 of standard peptide / IC50 of test peptide) (ratio to standard peptide) (HLA-A*1101 (human)) did it give?
Answer: Its binding affinity ratio (IC50 of standard peptide / IC50 of test peptide) (ratio to standard peptide) is 0.0002.

B7: … (HPV16 E6, position 107, 9 amino acids) (peptide)
peptide: LIRCINCQK
modifications: not checked
Question: With B7 as the binder, how does the binding affinity ratio (IC50 of standard peptide / IC50 of test peptide) (ratio to standard peptide) (HLA-A*1101 (human)) read?
Answer: The binding affinity ratio (IC50 of standard peptide / IC50 of test peptide) (ratio to standard peptide) was 0.0009.

B8: … (HPV16 E6, position 106, 10 amino acids) (peptide)
peptide: LLIRCINCQK
modifications: not checked
Question: Which binding affinity ratio (IC50 of standard peptide / IC50 of test peptide) (ratio to standard peptide) (HLA-A*1101 (human)) does the source give for B8 here?
Answer: The binding affinity ratio (IC50 of standard peptide / IC50 of test peptide) (ratio to standard peptide) was 0.18.

B9: … (HPV16 E6, position 93, 9 amino acids) (peptide)
peptide: TTLEQQYNK
modifications: not checked
Question: B9 was tested. Which relative binding ratio (IC50 of standard peptide / IC50 of test peptide) (HLA-A*1101 (human)) did it give?
Answer: The relative binding ratio (IC50 of standard peptide / IC50 of test peptide) was 0.29.

B10: HPV18 E1 284-292 peptide … (peptide)
peptide: ALLRYKCGK
modifications: not checked
Question: Which relative binding ratio (IC50 of standard peptide / IC50 of test peptide) (HLA-A*1101 (human)) does the source give for B10 here?
Answer: Its relative binding ratio (IC50 of standard peptide / IC50 of test peptide) is 0.14.

B11: HPV18 E1 412-420 peptide … (peptide)
peptide: CATMCKHYR
modifications: not checked
Question: Which relative binding ratio (IC50 of standard peptide / IC50 of test peptide) (HLA-A*1101 (human)) does the source give for B11 here?
Answer: Its relative binding ratio (IC50 of standard peptide / IC50 of test peptide) is 0.011.

B12: HPV18 E1 460-468 peptide … (peptide)
peptide: FITFLGALK
modifications: not checked
Question: For B12, which relative binding ratio (IC50 of standard peptide / IC50 of test peptide) (HLA-A*1101 (human)) is on record?
Answer: Its relative binding ratio (IC50 of standard peptide / IC50 of test peptide) is 0.037.

B13: HPV18 E1 229 … (peptide)
peptide: LVRNFKSDK
modifications: not checked
Question: How did the binding affinity ratio (IC50 of standard peptide / IC50 of test peptide) (HLA-A*1101 (human)) turn out when B13 was run?
Answer: Its binding affinity ratio (IC50 of standard peptide / IC50 of test peptide) is 0.0002.

B14: HPV18 E1 312 … (peptide)
peptide: MLIQPPKLR
modifications: not checked
Question: Which binding affinity ratio (IC50 of standard peptide / IC50 of test peptide) (HLA-A*1101 (human)) does the source give for B14 here?
Answer: Its binding affinity ratio (IC50 of standard peptide / IC50 of test peptide) is 0.0014.

B15: HPV18 E1 428 … (peptide)
peptide: NMSQWIRFR
modifications: not checked
Question: B15 was tested. Which binding affinity ratio (IC50 of standard peptide / IC50 of test peptide) (HLA-A*1101 (human)) did it give?
Answer: Its binding affinity ratio (IC50 of standard peptide / IC50 of test peptide) is 0.0012.

B16: HPV18 E1 393 … (peptide)
peptide: NSNAAAFLK
modifications: not checked
Question: How did the binding affinity ratio (IC50 of standard peptide / IC50 of test peptide) (HLA-A*1101 (human)) turn out when B16 was run?
Answer: Its binding affinity ratio (IC50 of standard peptide / IC50 of test peptide) is 0.37.

B17: HPV18 E1 426 … (peptide)
peptide: QMNMSQWIR
modifications: not checked
Question: For B17, which binding affinity ratio (IC50 of standard peptide / IC50 of test peptide) (HLA-A*1101 (human)) is on record?
Answer: The binding affinity ratio (IC50 of standard peptide / IC50 of test peptide) was 0.0023.

B18: HPV18 E1 peptide … (position 322, 9 amino acids) (peptide)
peptide: SVAALYWYR
modifications: not checked
Question: How did the relative binding ratio (IC50 of standard peptide / IC50 of test peptide) (HLA-A*1101 (human)) turn out when B18 was run?
Answer: Its relative binding ratio (IC50 of standard peptide / IC50 of test peptide) is 8.8.

B19: HPV18 E6 68 … (peptide)
peptide: CIDFYSRIR
modifications: not checked
Question: With B19 as the binder, how does the binding affinity ratio (IC50 of standard peptide / IC50 of test peptide) (HLA-A*1101 (human)) read?
Answer: Its binding affinity ratio (IC50 of standard peptide / IC50 of test peptide) is 0.0001.

B20: HPV18 E6 27 … (peptide)
peptide: DIEITCVYCK
modifications: not checked
Question: With B20 as the binder, how does the binding affinity ratio (IC50 of standard peptide / IC50 of test peptide) (HLA-A*1101 (human)) read?
Answer: The binding affinity ratio (IC50 of standard peptide / IC50 of test peptide) was 0.0021.

B21: HPV18 E6 83 … (peptide)
peptide: DSVYGDTLEK
modifications: not checked
Question: B21 was tested. Which binding affinity ratio (IC50 of standard peptide / IC50 of test peptide) (HLA-A*1101 (human)) did it give?
Answer: The binding affinity ratio (IC50 of standard peptide / IC50 of test peptide) was 0.0051.

B22: HPV18 E6 43 EVFEFAFK (peptide)
peptide: EVFEFAFK
modifications: not checked
Question: With B22 as the binder, how does the binding affinity ratio (IC50 of standard peptide / IC50 of test peptide) (HLA-A*1101 (human)) read?
Answer: Its binding affinity ratio (IC50 of standard peptide / IC50 of test peptide) is 0.018.

B23: HPV18 E6 102 … (peptide)
peptide: LIRCLRCQK
modifications: not checked
Question: B23 was tested. Which binding affinity ratio (IC50 of standard peptide / IC50 of test peptide) (HLA-A*1101 (human)) did it give?
Answer: The binding affinity ratio (IC50 of standard peptide / IC50 of test peptide) was 0.0012.

B24: HPV18 E6 101 … (peptide)
peptide: LLIRCLRCQK
modifications: not checked
Question: B24 was tested. Which binding affinity ratio (IC50 of standard peptide / IC50 of test peptide) (HLA-A*1101 (human)) did it give?
Answer: The binding affinity ratio (IC50 of standard peptide / IC50 of test peptide) was 0.12.
